In test [1] the target is T1, CD33/Siglec 3 chimeric fusion protein (ectodomain of CD33 fused to the Fc portion of human IgG1, with a … (Homo sapiens; human, UniProt P20138 18-259).
T1 construct: extracellular domain; also called CD33-fusion; CD33-IgG; not shown: Fc region of human IgG1 (human Fc gamma) from the expression vector; C-terminal recognition site for E. coli biotin ligase
In words: immunofluorescence staining of transfected SJCRH30 cells with CD33-fusion and anti-human IgG1-APC (FIG. 3B). As to the method:
Immunofluorescence was detected using a Zeiss automated upright fluorescence microscope and images captured by a Nikon camera with the Capture Program AxioVision. Detailed methods for immuno-staining on S100A9 transfected SJCRH30 cells have been published previously (Chen, X., et al. 2008. Blood 113(14):3226-34). Specifically, SJCRH30 cells, which lack detectable expression levels of both CD33 and S100A9, were transfected with either S100A9 or S100A8 (negative control) for 48-72 hours. After incubation with CD33-fusion for 30 min (2 μg/ml), 1×10⁴ cells were cytospinned onto slides and then stained with a secondary anti-human IgG1-APC before analysis by immunofluorescence microscopy. Similarly, SJCRH30 cells, stable-transfected with CD33, were incubated with rhS100A9 tagged with DDK for various time points and stained by the same methodology before analysis.
S100A9 is a native ligand for CD33. […] Therefore, to identify potential ligand(s) for this receptor, a chimeric fusion protein with the ectodomain of CD33 and the Fe portion of human IgG (here on referred to as CD33-fusion) was produced. BM cell lysates from MDS patients were immunoprecipitated with the CD33-fusion followed by high throughput mass-spectrometric analysis on associated peptides. S100A9, an inflammatory signaling molecule known to activate MDSC, was among the most prominent protein bands identified (FIG. 3A). […]

The target in test [2] is T1, CD33/Siglec 3 chimeric fusion protein …. Briefly: immunoprecipitation of BM cell lysates from MDS patients with CD33-fusion, then mass spectrometry (FIG. 3A). The source says:
Therefore, to identify potential ligand(s) for this receptor, a chimeric fusion protein with the ectodomain of CD33 and the Fe portion of human IgG (here on referred to as CD33-fusion) was produced. BM cell lysates from MDS patients were immunoprecipitated with the CD33-fusion followed by high throughput mass-spectrometric analysis on associated peptides. S100A9, an inflammatory signaling molecule known to activate MDSC, was among the most prominent protein bands identified (FIG. 3A). To confirm the specificity of the binding of this DAMP to CD33 both S100A8 and S100A9 transfectants were prepared in the rhabdomyosarcoma cell line SJCRH30, which lacks detectable expression of endogenous CD33, S100A8 or S100A9. […] To validate clinically the ligand specificity in MDS patients, the pull-down was compared with CD33-fusion from healthy PBMC and BM as well as MDS patients. As expected, the highest amount of S100A9 was precipitated from the BM of MDS patient specimens (FIG. 3F). Next, to understand the kinetics of S100A9 and CD33 interactions, SJCRH30 cells were transfected with either vector or CD33 and incubated with recombinant human (rh) S100A9 tagged with DDK ([…] epitope, same epitope as Flag).

For test [3], the target named is T2, CD33 (Siglec 3) expressed in cells (human, UniProt P20138 18-364).
T2 construct: whole, on cells; In the co-immunoprecipitations it stood in cell lysates; also called SJCRH30-CD33 cells; CD33 on MDS-MDSC
Briefly: reverse immunoprecipitation: S100A9 IP from CD33/S100A9 co-transfected SJCRH30 lysate, blotted for CD33 (FIG. 3E).

From patent US20230348555A1 (H LEE MOFFITT CANCER CENTER AND RESEARCH INSTITUTE, published 2023) come the findings set out here.

B1: S100A8 (ligand, UniProt P05109 1-93, looked up)
chain: MLTELEKALNSIIDVYHKYSLIKGNFHAVYRDDLKKLLETECPQYIRKKGADVWFKELDINTDGAVNFQEFLILVIKMGVAAHKKSHEESHKE
notes: also called MRP-8; calgranulin A
Consider B1, for which the binding result in test [1] is “no binding (tested: 2 µg/ml CD33-fusion for 30 min)”.

B2: S100A9 (ligand, human, UniProt P06702 1-114, looked up)
chain: MTCKMSQLERNIETIINTFHQYSVKLGHPDTLNQGEFKELVRKDLQNFLKKENKNEKVIEHIMEDLDTNADKQLSFEEFIMLMARLTWASHEKMHEGDEGPGHHHKPGLGEGTP
notes: One entry covers both the endogenous protein of human specimens and the protein expressed from transfected cDNA; also called MRP-14; calgranulin-B
Regarding B2, the binding result in test [2] and in test [3] was “binds” in each case.
